Laboratory results: paper PMC11828469 (2025)

B1: GST–Rabin8-WT [human] / 6His–Rab11a [not stated] (parent complex)
chain 1: MANDPLEGFHEVNLASPTSPDLLGVYESGTQEQTTSPSVIYRPHPSALSSVPIQANALDVSELPTQPVYSSPRRLNCAEISSISFHVTDPAPCSTSGVTAGLTKLTTRKDNYNAEREFLQGATITEACDGSDDIFGLSTDSLSRLRSPSVLEVREKGYERLKEELAKAQRELKLKDEECERLSKVRDQLGQELEELTASLFEEAHKMVREANIKQATAEKQLKEAQGKIDVLQAEVAALKTLVLSSSPTSPTQEPLPGGKTPFKKGHTRNKSTSSAMSGSHQDLSVIQPIVKDCKEADLSLYNEFRLWKDEPTMDRTCPFLDKIYQEDIFPCLTFSKSELASAVLEAVENNTLSIEPVGLQPIRFVKASAVECGGPKKCALTGQSKSCKHRIKLGDSSNYYYISPFCRYRITSVCNFFTYIRYIQQGLVKQQDVDQMFWEVMQLRKEMSLAKLGYFKEEL
chain 2: MGTRDDEYDYLFKVVLIGDSGVGKSNLLSRFTRNEFNLESKSTIGVEFATRSIQVDGKTIKAQIWDTAGQERYRAITSAYYRGAVGALLVYDIAKHLTYENVERWLKELRDHADSNIVIMLVGNKSDLRHLRAVPTDEARAFAEKNGLSFIETSALDSTNVEAAFQTILTEIYRIVSQKQMSDRRENDMSPSNNVVPIHVPPTTENKPKVQCCQNI
B2: GST–Rabin8-WT [human] / 6His–Rab8a [not stated] (parent complex)
chain 1: B1 chain 1
chain 2: MAKTYDYLFKLLLIGDSGVGKTCVLFRFSEDAFNSTFISTIGIDFKIRTIELDGKRIKLQIWDTAGQERFRTITTAYYRGAMGIMLVYDITNEKSFDNIRNWIRNIEEHASADVEKMILGNKCDVNDKRQVSKERGEKLALDYGIKFMETSAKANINVENAFFTLARDIKAKMDKKLEGNSPQGSNQGVKITPDQQKRSSFFRCVLL

Variants of: B1
Assay: GST pull-down, immunoblot quantified with Image Lab 6.1; purified Rab11 in the presence of GTPγS; n=3; parent: 8.5; read off a plot

| response | Variant |
| --- | --- |
| ~9 | chain 1 F201A |
| ~9.5 | chain 1 E192A |

Variants of: B1
Assay: GST pull-down, immunoblot quantified with Image Lab 6.1; purified Rab11 in the presence of GTPγS; n=3; P=0.0012 vs WT; parent: 8.5; read off a plot

| response | Variant |
| --- | --- |
| ~2.5 | chain 1 T419A, chain 1 Y423A, chain 1 L428A |

Variants of: B2
Assay: GST pull-down, immunoblot quantified with Image Lab 6.1; purified Rab8 in the presence of GDPβS; n=3; parent: 4.5; read off a plot

| response | Variant |
| --- | --- |
| ~4.5 | chain 1 T419A, chain 1 Y423A, chain 1 L428A |
| ~4.5 | chain 1 F201A |
| ~4.5 | chain 1 E192A |
